What was measured:
Assay in all cases: ELISA; antibody coated, FLAG-tagged RBD mutant, anti-FLAG-HRP detection
Ang2 RBD mutant Y460 = molecular target: T1, Ang2 RBD mutant Y460 (human, UniProt O15123 276-496)
T1 chain: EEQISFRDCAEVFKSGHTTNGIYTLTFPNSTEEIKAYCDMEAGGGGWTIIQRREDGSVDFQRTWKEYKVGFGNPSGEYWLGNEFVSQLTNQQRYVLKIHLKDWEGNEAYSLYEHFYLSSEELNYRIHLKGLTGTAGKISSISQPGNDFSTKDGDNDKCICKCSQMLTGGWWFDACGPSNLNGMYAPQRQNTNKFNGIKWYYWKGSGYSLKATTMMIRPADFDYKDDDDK

Ang2 RBD mutant N421 = molecular target: T2, Ang2 RBD mutant N421 (human, UniProt O15123 276-496)
T2 chain: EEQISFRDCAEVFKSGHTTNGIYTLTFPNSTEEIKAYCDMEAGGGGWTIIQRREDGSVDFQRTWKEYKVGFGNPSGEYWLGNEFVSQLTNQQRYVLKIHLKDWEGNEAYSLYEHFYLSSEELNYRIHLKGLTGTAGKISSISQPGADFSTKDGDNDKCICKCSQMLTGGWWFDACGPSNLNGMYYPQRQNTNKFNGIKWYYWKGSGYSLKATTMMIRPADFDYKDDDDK

Ang2 RBD mutant K468 = molecular target: T3, Ang2 RBD mutant K468 (human, UniProt O15123 276-496)
T3 chain: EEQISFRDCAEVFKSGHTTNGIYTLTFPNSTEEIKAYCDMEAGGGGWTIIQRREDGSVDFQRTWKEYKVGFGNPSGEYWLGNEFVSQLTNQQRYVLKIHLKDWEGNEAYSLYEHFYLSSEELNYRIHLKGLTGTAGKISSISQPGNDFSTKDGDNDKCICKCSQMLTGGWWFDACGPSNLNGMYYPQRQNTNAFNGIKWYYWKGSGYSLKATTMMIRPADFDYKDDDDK

Ang2 RBD mutant I434 = molecular target: T4, Ang2 RBD mutant I434 (human, UniProt O15123 276-496)
T4 chain: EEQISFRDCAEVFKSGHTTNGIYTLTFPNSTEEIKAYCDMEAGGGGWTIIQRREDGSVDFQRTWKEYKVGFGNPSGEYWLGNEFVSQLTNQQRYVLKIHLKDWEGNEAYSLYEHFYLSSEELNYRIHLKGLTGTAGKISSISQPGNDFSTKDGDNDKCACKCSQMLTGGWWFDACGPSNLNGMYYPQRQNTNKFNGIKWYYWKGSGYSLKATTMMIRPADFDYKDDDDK

Ang2 RBD mutant P419 = molecular target: T5, Ang2 RBD mutant P419 (human, UniProt O15123 276-496)
T5 chain: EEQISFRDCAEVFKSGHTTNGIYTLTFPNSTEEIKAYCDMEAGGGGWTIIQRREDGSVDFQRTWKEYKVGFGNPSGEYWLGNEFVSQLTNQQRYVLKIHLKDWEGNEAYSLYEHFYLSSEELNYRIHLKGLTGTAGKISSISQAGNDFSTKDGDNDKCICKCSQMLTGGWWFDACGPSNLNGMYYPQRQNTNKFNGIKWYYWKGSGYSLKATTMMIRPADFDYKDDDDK

Ang2 RBD mutant P452 = molecular target: T6, Ang2 RBD mutant P452 (human, UniProt O15123 276-496)
T6 chain: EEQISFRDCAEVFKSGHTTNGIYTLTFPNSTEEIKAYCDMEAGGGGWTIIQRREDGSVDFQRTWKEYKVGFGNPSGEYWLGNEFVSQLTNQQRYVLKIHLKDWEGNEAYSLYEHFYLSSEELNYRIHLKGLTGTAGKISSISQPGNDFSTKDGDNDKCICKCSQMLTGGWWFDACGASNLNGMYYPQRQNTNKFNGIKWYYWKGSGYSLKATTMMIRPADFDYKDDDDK

B1: SAIT-ANG2-AB-m1A10 (antibody, V domains shown)
VH: QVQLQQSGAELMKPGASVKISCKATDYTFSSYWLEWLIQRPGHGLEWIGEILPGSGSTNYNEKFRGKATFTEDTSSNTAYMQLSSLTSEDSAVYYCARGNHNSYYYAMDYWGQGTSVTVSS
VL: DIVLTQSPASLAVSLGQRATISCRASESVDSYGNSFMHWYQQKPGQPPKLLIYRASNLDSGIPARFSGSGSRTDFTLTINPVEADDVATYYCQQSNEDPLTFGAGTKLELK
notes: also called hybridoma KCLRF-BP-00306
Question: For B1, which “Binding (%) (mutant Ang2 / native Ang2)” value (Ang2 RBD mutant Y460) is on record?
Answer: The value was 8.3%.

Question: What about the “Binding (%) (mutant Ang2 / native Ang2)” value (Ang2 RBD mutant N421) of the same binder?
Answer: The value was 89.3%.

Question: What about the “Binding (%) (mutant Ang2 / native Ang2)” value (Ang2 RBD mutant K468) of the same binder?
Answer: The value was 27.3%.

Question: What about the “Binding (%) (mutant Ang2 / native Ang2)” value (Ang2 RBD mutant I434) of the same binder?
Answer: The value was 93.2%.

Question: And the “Binding (%) (mutant Ang2 / native Ang2)” value (Ang2 RBD mutant P419)?
Answer: The value was 102%.

Question: What about the “Binding (%) (mutant Ang2 / native Ang2)” value (Ang2 RBD mutant P452) of the same binder?
Answer: The value was 105%.

From US20150210761A1 (SAMSUNG ELECTRONICS, published 2015)
